In US20220153796A1:

The binders below were run against HLA-B*08 (human) (assay: UV peptide exchange ELISA).

MLKQKVEEL and ILLPRTVSL cannot be ordered by peptide exchange yield: greater than 75% for the first, greater than 75% for the second.

Compared with ILKVKVGL, FNKRKPLSL is lower in peptide exchange yield: greater than 75% for the first, 50 to 75% for the second.

First: EIRIRVVQM
Second: HLLQKQTSI
The peptide exchange yield of the first is higher: greater than 75% for the first, 50 to 75% for the second.

DAIQRKYSC and VASPKHCVL fall in the same range of peptide exchange yield: 50 to 75% for the first, 50 to 75% for the second.

Compared with EAAIRSVEL, VIKEKALTL is lower in peptide exchange yield: greater than 75% for the first, 50 to 75% for the second.

ELKKKEYEEL and ELKKLYCQI cannot be ordered by peptide exchange yield: greater than 75% for the first, greater than 75% for the second.

DIYQRALNL and RAQLKLVAL cannot be ordered by peptide exchange yield: greater than 75% for the first, greater than 75% for the second.

AIISRLVAL and LPPKKFVL cannot be ordered by peptide exchange yield: greater than 75% for the first, greater than 75% for the second.

LPFPKFTV and YMHKLLVL cannot be ordered by peptide exchange yield: greater than 75% for the first, greater than 75% for the second.

MAQFKEISL and MPMQDIKM cannot be ordered by peptide exchange yield: greater than 75% for the first, greater than 75% for the second.

LVKVKVLL and EAMLRNKEL cannot be ordered by peptide exchange yield: greater than 75% for the first, greater than 75% for the second.

Work on ALKLRVAVL yielded a peptide exchange yield greater than 75%.

The binders below were run against HLA-B*44 (human) (assay: UV peptide exchange ELISA).

SDMVRFHLF and AEEEIMKKI fall in the same range of peptide exchange yield: 20 to 50% for the first, 20 to 50% for the second.

First: MEMQKSPVF
Second: GELALKKKI
The peptide exchange yield of the first is higher: 50 to 75% for the first, 20 to 50% for the second.

KEADIHFLI and DELFSIALY cannot be ordered by peptide exchange yield: greater than 75% for the first, greater than 75% for the second.

AEIQPQTQV and GEVHPSEMI fall in the same range of peptide exchange yield: 50 to 75% for the first, 50 to 75% for the second.

SEDDPILQI and RELQHEHSL fall in the same range of peptide exchange yield: 50 to 75% for the first, 50 to 75% for the second.

YEDLSQKY and GEFPVRVQV fall in the same range of peptide exchange yield: 20 to 50% for the first, 20 to 50% for the second.

SEKGVIQVY and SEIEQEIGSL fall in the same range of peptide exchange yield: 50 to 75% for the first, 50 to 75% for the second.

Compared with QENSYQSRL, TEGIIMKDF is lower in peptide exchange yield: 50 to 75% for the first, 20 to 50% for the second.

First: AEVGFVRFF
Second: RELENCFQIQ
The peptide exchange yield of the first is higher: greater than 75% for the first, 50 to 75% for the second.

Compared with SEIGKAVGF, SEIEDSTKQVF is lower in peptide exchange yield: greater than 75% for the first, 50 to 75% for the second.

Compared with EENDQSTHKW, SENLFFASF is higher in peptide exchange yield: 50 to 75% for the first, greater than 75% for the second.

GEVSGLTKDF and AENLFRAF fall in the same range of peptide exchange yield: 20 to 50% for the first, 20 to 50% for the second.

AETPIQNVI and EEIERFFKL fall in the same range of peptide exchange yield: 50 to 75% for the first, 50 to 75% for the second.

EEGRVYLF and AEDQLHHSF fall in the same range of peptide exchange yield: 50 to 75% for the first, 50 to 75% for the second.

Compared with TEFPIIKMY, AEVPTGVII is higher in peptide exchange yield: 20 to 50% for the first, 50 to 75% for the second.

Compared with SEMNVNMKY, AELDKLTSV is lower in peptide exchange yield: greater than 75% for the first, 50 to 75% for the second.

First: DEVNFLVY
Second: TEREWADEW
The peptide exchange yield of the first is lower: 10 to 20% for the first, 50 to 75% for the second.
